Assay: yeast display, Sf9 membrane polyspecificity reagent, FACS + sequencing; frameworks hold sequencing errors
Outline: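 Polyreactivity labels are assigned by the sorting gate from which each nanobody was recovered. The gates were low and high (top ~1%), set on anti-HA fluorescence for expression and streptavidin fluorescence for reagent binding. Before sorting, galactose-induced (36–48 hours) yeast display cells were stained for 1 hour at 4 °C with 10% biotinylated, detergent-solubilized Sf9 membrane reagent.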

Sequence | polyreactivity (PSR sort gate)
AVQLEESRGGLVQAGGSLRLSCAASGFIFTVNAMGWSRQAPGKERELVAAITQSGGNTSYADSVKGRFTFSRDNAKNTFYLQMNSLKPEDTAVYYCAADDVDVEHPASWDDYDSWGQGTQVTVSS | low polyreactivity
EEELVESGGGLVQAGGSLRLSCAASGRIFGPYAMGWYRQAPGKEREFVAAISGGGGNTYYADSVKGRFTISRDNAKNTVNLQMNSLKPEDTAVYYCAAQHVPRWWWYAPVKYDYWGQGTQVTVSS | low polyreactivity
EEELVESGVGLVQAGGSLRLSCAASGRTFARNAMGWYRQAPGKERELVAGINFSGGNTYYADSVKGRFTISRDNAKNTVYLQMNSLKPEDTAVYYCAARRYWEGDYWGQGTQVTVSS | low polyreactivity
EVQLVESGGGLVQAGGSLRISCAASGRIFNFYAMGWYRQAPGKEREFVASIRSNVGSTYYADSVKGRFTISRDNAKNTVYLQMNSLKPEDTAVYYCNARYYWYRGYDYWGQGTQVTVSS | high polyreactivity
EVQLVESGGGLVQAGGSLRLSCAASGRIFVHYAMGWYRQAPGKERELVAAITSGSSTNYADSVKGRFTISRDNAKNTVYLQMNSLKPEDTAVYYCAADYSVHRVRDRWFDYWGQGTQVTVSS | low polyreactivity
EVQLVESGGGLVQAGGSLRLSCAASGSTFNWNDMGWYRQAPGKEREFVASISTTGSTNYADSVKGRFTISRDNAKNTVYLQMNSLKPEDTAVYYCNAEYGWYYWYGYWFYEGDYWGQGTQVTVSS | high polyreactivity
EVQLVESGGGLVQAGGSLRLSFAASGFTFRYYAMGWYRQAPGKERELVASITGGGRTYYADSVKGRFTISRDNAKNTVYLQMNSLKPEDTAVYYCATLLAYRLGSGYDSWGQGTQVTVSS | high polyreactivity
EVQLVESGGGLVQPGGSLRLSCAASGYIYSRYRMGWYRQAPGKGREFVAAISGGSSTNYADSVKGRFTISRDNSKNTVYLQMNSLRAEDTAVYYCAAYKIDIDPRVYWGHGTQVTVSS | low polyreactivity
EVQLVESGGGLVQPGGSLRLSCAASGYIYSRYRMGWYRQAPGKGREFVAAISGGSSTNYADSVKGRFTISRDNSTNTVYLQMNSLRAEDTAVYYCAAYKIDSDPRVYWGQGTQVTVSS | low polyreactivity
EVQLVESGGGLVQPGGSLRLSCASSGYIYRRYRMGRYRQAPGKGREFVAAISGGSSTNYADSVKGRFTISRDNSKNTLYLQMKSLRAEDTAVYYCEGYKIDSDPRVYWGQGTQVTVSS | low polyreactivity
EVQLVESRGGLVQAGGSLRLSCAASGRIFRVYTMGWYRQAPGKERELVAAISRGGTTTYADSVKGRFTISCDNAKNTVYLQMNSLKPEDTAVYYCNARGWFRGEFDYWGQGTQVTVSS | high polyreactivity
EVQLVESVGGLVHAGGSLGLSFAASGSIFDRNAMGWYRQAPGKERELVAAISVSGGSTYYADSVKGRFTISRDNAKNTVYLQMNSLKPEDTAVYYCDKAGRYANLPYGYWGHGTQVTVSS | high polyreactivity
HAQLQESGGGLVQAGGSLRRSCAASGSIFRFSGMGWYRRAPGKERELVASIGFGSITYYADRVKGRFTMSRDNANNTVYLQKNSLKPEDTAVDYCAVQVQDESWLDYWGQGTQVTVSC | low polyreactivity
HCQLVESGGVLVQEGGSLRISCAASGYTFTPYAMGWYRQAPGKEREFVAGITWRTGRTYYADSVKGRFTISRDIAKNTVYLQMISLKPEDTAVYYCNKYHQRRYYWSYDYWGQGTQVTVSS | low polyreactivity
HDQLVETGGGLVQAGGSLRLSCAASGRTYSKYAMGRYRQPPGKERELVAAITSGGGTYYADSVKGRFTISRDNAKNTVYVQMNSLSPEDSAVYYCAVSVTTVSTHDYWGQGTQVTVSS | low polyreactivity
HEQQQDSGAGLVQAGGSLRLSCAASGNIFDSPRMGWYRQATGKEREFVATIGSGTITNYADSVKGRFTISRDNAKNTVYLQMNSLKPEDTAVYYCAAEFYLRRFKVTKRYWFDYWGQGTQVTVSS | low polyreactivity
HGQLVESGGGLVHAGGSLRLSCAASGSTFAIYALGWYREAPGKERELVAGITGRGTSTYYADSVKGRFTISRDNAKNTVYLQMNSLKPEDTAVYYCNKVRYAFRYDYWGQGTQVTVSS | high polyreactivity
HGQLVESGGGLVQAGGSLRLSCAASGITFTPKDMGWYREAPGKERELVAAISSSDGTTYYADSVTGRFTSSRDNAKNTVYLQMNSLKPEDTAVYYCAAEYYYSPAYDYYSGFKTLYYDWGQGTQVTGSS | high polyreactivity
HLQLVESGGGLVQAGGSLRLSCAPSGSTFKRNTKGWYRQAPGKEREMVASINRGGSTYYADSVKGRFTISSDNAKNTVYLQMNSLKPEDTAVYYCAKRVLNCYTGTQAPNKFGYWGQGTQVTVSS | low polyreactivity
HVLLVESAGGLVQAGGSLRLSCAASGLIFHRYAMGWYRQAPGKERELVAAISSSGGITYYADSVKGRFTISRDNAKNTVYLQMNSLKPEDTAFYYCAADTGKGTPFSAGLGRAGDYWGQVTQVTVSS | low polyreactivity
HVQLGESGGGLVQAGGSLRLSCAASGFIFQRYAMGWDRQAPGKERELVAAITTSGGRTYYADSVKGRFTMSRDNAKKTVYLQMNSLKPEDTAVYYCAAEGSHNSEYWGQGTQVTVSS | high polyreactivity
HVQLQESDGGLVQAGGSLRLSCAASGSISPQYYMCWYRQAPGKEREFVAISKGTTTYYADSVKGRLTISRVNAKNTVYLQMNSLKPEDTAVYCCAAGRWLQKVHAYWDQGTQVTVSS | low polyreactivity

Sequence | polyreactivity (PSR sort gate)
HVQLQESGGCLVQAGGSLRLSCAARGSNSRLDSMGWNRQASGKVRELVAAIDNGSTTYYADSVKGRLTISRDNAKYSVYLQMNSLKAEDTAVYFCAAVRGGGGTHAYWGQGTQVTVSG | low polyreactivity
HVQLQESGGGLVQAGGSLRLSCAASGNISNSRNMGWYRQAPGKERELVAAIDRGAITYYADSVKGRFTISRDNAKNTVYLQIYSLKPEDTAVYYCAAEYHDRWDHRYWGQGTQVTVSS | high polyreactivity
HVQLQESGGGLVQAGGSLRLSCAASGNISYSRNMGWYRQAPGKERELVAAIDRGAITYYADSVKGRFTISRDNAKNTVYLQIYSLKPEDTAVYYCAAEDHDRWDHLYWGQGTQVTVSS | high polyreactivity
HVQLVEAGGGLVQAGGSLRVSCAASGFTIHYNAMGWYRQAPGKGWELVATISKSAGITSYADSVKGRFTISRDNATNTVYFPMNSLKPEDTAVYYCAADKSYRRVYYWGQGSQVTVSS | low polyreactivity
HVQLVESGGGFVQAGGSLRLSCASYGSIFSGYAMGSYRQAPAKERELVAAISNTGSTNYADSVKGRFTISRDNAKYNVYLQMNSLKPEDTAVYYCNASYSYGEMDYWGQGTQVTVSS | low polyreactivity
HVQLVESGGGLVQAAGSLRLSCAASGSTFYRYAMGWYRQAPVKERELVAAITRGGGRTYYADSVKGRFTISRDNAKNTVYLQMNSLKPEDTAVFYCNAASPYYDSWGQGTQVTVSS | high polyreactivity
HVQLVESGGGLVQAGARLRLSCAASGITFFYYAMGWYRQAPGKERELVAAINWSGRTYYADSVKGRFTISRDNAKNTVYLQMNSLKPEDTAVDYCAAVTYGPGVSGMDYWGQGTQVTVSS | low polyreactivity
HVQLVESGGGLVQAGGILRLSCAASGRIFPGYTMGWYRQGPGKERELVARISFSDGSTYYADSVNGRFTISRDNAKNTVYFQMNSRKPEDTAVYYCNAATYRNRHSNNGYWGQGTQVTVSS | low polyreactivity
HVQLVESGGGLVQAGGSLRLSCAASGFIFDVNAMGWYRQAPGKERELVAVIRGSGGSTYYADSVKGRFTISRDNAKNTVYLQMNSLKPADTAVYYCAAAVNHVAYHYNYWGQGTQVTVSS | high polyreactivity
HVQLVESGGGLVQAGGSLRLSCAASGFIFRGHVMGWYRQAPGKERELVAAISGGSTTYADSVKGRFTISRDNAKTTVYLQMNSLKPEDTAVYYCAKRDQDRTFPNGYWGQGTQVTVSS | high polyreactivity
HVQLVESGGGLVQAGGSLRLSCAASGFIFVFYDMGWYRPAPGKERELVAGITRNDGSTYYADSVKGRFKISRDNAKNTVYLQMNSLKPEDTAVYYCAADRVRRNDKLAYDYWGQGTQVTVSS | low polyreactivity
HVQLVESGGGLVQAGGSLRLSCAASGFIGIYALGWYRQAPGKERELVAAITTSGGRTYYADSVKGRFTISRDNAKNTVYLQMNSLKPEDTAVYYCAAPWRLFSLYDYWGQGTQVTVSS | low polyreactivity
HVQLVESGGGLVQAGGSLRLSCAASGFTFPIYTMGWYRQAPGKESELVAAISASGGRTYYADSVKGRFTISRDNAKNTVYFQMNSLNPEDTSVYFCAADGYRAPGNAYYYWGQGTQVTVSS | high polyreactivity
HVQLVESGGGLVQAGGSLRLSCAASGFTFRRNAMGWYRQSPGKERELVASITQRGGSTYYADSVKGRFTISRDNAKNTVYLQMNSLKPADTAVYDCNARSWDSFHPHDYWGQGTLVTVSS | high polyreactivity
HVQLVESGGGLVQAGGSLRLSCAASGFTIQRYAMGWYRQAPGKERELVAAITSGGSTYYADSVKGRFTISRDNAMNTVYLQMNSLKPEDTAVYYCATRAVWSSWGRRYDSWGQGTQVTVSS | high polyreactivity
HVQLVESGGGLVQAGGSLRLSCAASGIIFIGNAMGWYSQAPGKERELVAAISRRGGRTYYADSVKGRFTISRDNAKNTVYLQMNSLKPEDTAVYYCNAEISVNDDDYWGQGTQVTVSS | high polyreactivity
HVQLVESGGGLVQAGGSLRLSCAASGIIFWTYTMGWYRQAPGKERELVGAISSGGSTKYADSVKGRFTISRDNAKNTVYLQMNSLKPADTAVYYCNAEFAPWGSAYGHDQYDYWGQGTQVTVSS | low polyreactivity
HVQLVESGGGLVQAGGSLRLSCAASGITFPIYAMGWYRQAPGKEREFVAAINQRGGSTYYADSVKGRFTISRDNAKNTVYLQMNSLKPEDTAVDYCAAENGFNSLSRSGLHYWGQGTQVTVSS | low polyreactivity
HVQLVESGGGLVQAGGSLRLSCAASGLIFSAYAMGWYRQAPGKEREFVAAISRSGGITFYADSVKGRFTISRDNAKNTVYLQMNSLKPEDTAVYYCAARLYKYRRGGGYFWGQGTKVTVSS | high polyreactivity
HVQLVESGGGLVQAGGSLRLSCAASGLTFEDNDMGWYRQAPGKERELVAAISSAGSTSYADSVKGRFTISRVNAKNTVYLQMNSLKPEDTAVYYCAKDNSPSYTPAQLDGGDDYWGHGTQVTVSS | low polyreactivity
HVQLVESGGGLVQAGGSLRLSCAASGNTFKYYAMGWYRQAPGKERELVAAISYSGGSTYYADSVKGRFTISRDNAKNTVYLQMNSLKPEDTAVYYCAADLDSERYYWGQGTQVTVSS | low polyreactivity

Source: the nanobody polyreactivity screen of Harvey et al. (2022)
